Source: article PMC5669812 (Protein expression and purification, 2017)
Read-outs that look alike come from different tables or passages of the source.

Assays:
native gel or EMSA = biological target: the molecule itself; assay: native gel or EMSA
MTSL-labeled GroEL^A138C [1] = biological target: T1, MTSL-labeled GroEL^A138C (E. coli, UniProt P0A6F5 2-548, C458A | C519A, MTSL nitroxide spin label on cysteine 138); assay: negative-stain electron microscopy
MTSL-labeled GroEL^A138C [2] = biological target: T1, MTSL-labeled GroEL^A138C; assay: negative-stain electron microscopy; remark: listed apart in the source

Row | Binder | binding result (native gel or EMSA) | stoichiometry N (MTSL-labeled GroEL^A138C [1]) | stoichiometry N (MTSL-labeled GroEL^A138C [2])
1 | MTS-labeled GroEL^R268C (natural protein, E. coli, diamagnetic MTS label on cysteine 268) AAKDVKFGNDARVKMLRGVNVLADAVKVTLGPKGRNVVLDKSFGAPTITKDGVSVAREIELEDKFENMGAQMVKEVASKANDAAGDGTTTATVLAQAIITEGLKAVAAGMNPMDLKRGIDKAVTAAVEELKALSVPASDSKAIAQVGTISANSDETVGKLIAEAMDKVGKEGVITVEDGTGLQDELDVVEGMQFDRGYLSPYFINKPETGAVELESPFILLADKKISNIREMLPVLEAVAKAGKPLLIIAEDVEGEALATLVVNTMCGIVKVAAVKAPGFGDRRKAMLQDIATLTGGTVISEEIGMELEKATLEDLGQAKRVVINKDTTTIIDGVGEEAAIQGRVAQIRQQIEEATSDYDREKLQERVAKLAGGVAVIKVGAATEVEMKEKKARVEDALHATRAAVEEGVVAGGGVALIRVASKLADLRGQNEDQNVGIKVALRAMEAPLRQIVLNAGEEPSVVANTVKGGDGNYGYNAATEEYGNMIDMGILDPTKVTRSALQYAASVAGLMITTEAMVTDLPKNDAADLGAAGGMGGMGGMGGMM | binds |  | 
2 | GroES (natural protein) MNIRPLHDRVIVKRKEVETKSAGGIVLTGSAAAKSTRGEVLAVGNGRILENGEVKPLDVKVGDIVIFNDGYGVKSEKIDNEEVLIMSESDILAIVEA |  | 2 GroES molecules per GroEL-14mer | 1 GroES molecules per GroEL-14mer
